Laboratory results as given in PMC10397247.
Where two headings read alike, the source gives them in different places.

Key:
4H3277-bN = target: T1, 4H3277-bN; test: two-hybrid library CCNG1;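 also: natural log of median RNA to DNA barcode read ratio; higher means stronger binding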
T1 chain: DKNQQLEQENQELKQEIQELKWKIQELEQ

4H3298-bN = target: T2, 4H3298-bN; test: two-hybrid library CCNG1;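 also: natural log of median RNA to DNA barcode read ratio; higher means stronger binding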
T2 chain: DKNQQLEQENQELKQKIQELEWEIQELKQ

4H3462-bN = target: T3, 4H3462-bN; test: two-hybrid library CCNG1;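 also: natural log of median RNA to DNA barcode read ratio; higher means stronger binding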
T3 chain: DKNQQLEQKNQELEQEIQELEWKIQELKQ

4H348-bN = target: T4, 4H348-bN; test: two-hybrid library CCNG1;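 also: natural log of median RNA to DNA barcode read ratio; higher means stronger binding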
T4 chain: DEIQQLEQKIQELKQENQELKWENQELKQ

4H3497-bN = target: T5, 4H3497-bN; test: two-hybrid library CCNG1;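 also: natural log of median RNA to DNA barcode read ratio; higher means stronger binding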
T5 chain: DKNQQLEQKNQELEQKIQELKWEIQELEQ

4H3613-bN = target: T6, 4H3613-bN; test: two-hybrid library CCNG1;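 also: natural log of median RNA to DNA barcode read ratio; higher means stronger binding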
T6 chain: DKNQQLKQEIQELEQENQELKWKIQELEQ

4H3628-bN = target: T7, 4H3628-bN; test: two-hybrid library CCNG1
T7 chain: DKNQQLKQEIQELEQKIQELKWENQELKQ

4H3926-bN = target: T8, 4H3926-bN; test: two-hybrid library CCNG1
T8 chain: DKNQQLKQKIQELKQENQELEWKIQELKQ

4H40-bN = target: T9, 4H40-bN; test: two-hybrid library CCNG1
T9 chain: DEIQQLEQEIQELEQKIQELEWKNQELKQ

4H477-bN = target: T10, 4H477-bN; test: two-hybrid library CCNG1
T10 chain: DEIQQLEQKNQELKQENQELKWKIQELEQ

4H492-bN = target: T11, 4H492-bN; test: two-hybrid library CCNG1
T11 chain: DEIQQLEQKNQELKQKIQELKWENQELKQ

4H591-bN = target: T12, 4H591-bN; test: two-hybrid library CCNG1
T12 chain: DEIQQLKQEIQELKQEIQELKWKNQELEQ

4H626-bN = target: T13, 4H626-bN; test: two-hybrid library CCNG1
T13 chain: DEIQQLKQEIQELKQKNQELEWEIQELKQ

4H741-bN = target: T14, 4H741-bN; test: two-hybrid library CCNG1
T14 chain: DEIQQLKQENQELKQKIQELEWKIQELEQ

4H754-bN = target: T15, 4H754-bN; test: two-hybrid library CCNG1
T15 chain: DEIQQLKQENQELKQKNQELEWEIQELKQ

4H906-bN = target: T16, 4H906-bN; test: two-hybrid library CCNG1
T16 chain: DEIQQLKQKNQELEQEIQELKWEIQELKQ

P2-AA-1HAA-D = target: T17, P2-AA-1HAA-D; test: two-hybrid library CCmax
T17 chain: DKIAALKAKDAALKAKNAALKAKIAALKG

P2-AA-1HAA-E = target: T18, P2-AA-1HAA-E; test: two-hybrid library CCmax; details: mean of both orientations
T18 chain: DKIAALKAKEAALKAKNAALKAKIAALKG

P2-AA-1HAA-I = target: T19, P2-AA-1HAA-I; test: two-hybrid library CCmax; details: mean of both orientations
T19 chain: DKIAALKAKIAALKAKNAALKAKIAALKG

P2-AA-1HAA-R = target: T20, P2-AA-1HAA-R; test: two-hybrid library CCmax; details: mean of both orientations
T20 chain: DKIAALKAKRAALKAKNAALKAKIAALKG

P2-AA-1HAA-S = target: T21, P2-AA-1HAA-S; test: two-hybrid library CCmax; details: mean of both orientations
T21 chain: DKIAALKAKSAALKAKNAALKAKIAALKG

P2-AA-1HAA-T = target: T22, P2-AA-1HAA-T; test: two-hybrid library CCmax; details: mean of both orientations
T22 chain: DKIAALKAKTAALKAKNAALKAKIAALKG

P2-AA-1HAA-V = target: T23, P2-AA-1HAA-V; test: two-hybrid library CCmax; details: mean of both orientations
T23 chain: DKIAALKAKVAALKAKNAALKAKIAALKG

P2-AA = target: T24, P2-AA; test: two-hybrid library CCmax; details: mean of both orientations
T24 chain: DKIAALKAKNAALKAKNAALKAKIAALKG

P7A-bA = target: T25, P7A-bA; test: two-hybrid library CCNG1
T25 chain: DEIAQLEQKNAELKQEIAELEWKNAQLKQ

P8A-bA = target: T26, P8A-bA; test: two-hybrid library CCNG1
T26 chain: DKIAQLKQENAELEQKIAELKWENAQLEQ

P9A-bA = target: T27, P9A-bA; test: two-hybrid library CCNG1
T27 chain: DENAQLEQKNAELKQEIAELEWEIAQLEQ

4H575-bA = target: T28, 4H575-bA; test: two-hybrid library CCNG1
T28 chain: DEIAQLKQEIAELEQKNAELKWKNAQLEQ

4H683-bA = target: T29, 4H683-bA; test: two-hybrid library CCNG1
T29 chain: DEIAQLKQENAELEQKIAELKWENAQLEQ

4H754-bA = target: T30, 4H754-bA; test: two-hybrid library CCNG1
T30 chain: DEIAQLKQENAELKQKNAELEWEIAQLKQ

4H780-bA = target: T31, 4H780-bA; test: two-hybrid library CCNG1
T31 chain: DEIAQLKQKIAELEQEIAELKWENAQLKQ

4H797-bA = target: T32, 4H797-bA; test: two-hybrid library CCNG1
T32 chain: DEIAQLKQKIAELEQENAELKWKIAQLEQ

4H855-bA = target: T33, 4H855-bA; test: two-hybrid library CCNG1
T33 chain: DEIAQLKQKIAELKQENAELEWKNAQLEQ

4H918-bA = target: T34, 4H918-bA; test: two-hybrid library CCNG1
T34 chain: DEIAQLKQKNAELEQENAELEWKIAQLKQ

4H953-bA = target: T35, 4H953-bA; test: two-hybrid library CCNG1
T35 chain: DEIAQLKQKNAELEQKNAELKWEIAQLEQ

4H968-bA = target: T36, 4H968-bA; test: two-hybrid library CCNG1
T36 chain: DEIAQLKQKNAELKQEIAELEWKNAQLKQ

B1: 4H3277-bN (peptide)
chain: DKNQQLEQENQELKQEIQELKWKIQELEQ
interaction score (4H3277-bN): 1.19
interaction score (4H3298-bN): -0.281
interaction score (4H3462-bN): -1
interaction score (4H348-bN): -1.89
interaction score (4H3497-bN): -0.895
interaction score (4H3613-bN): -1.08
interaction score (4H3628-bN): -0.458
interaction score (4H3926-bN): -0.4
interaction score (4H40-bN): 0.44
interaction score (4H477-bN): -1.11
interaction score (4H492-bN): -1.45
interaction score (4H591-bN): -1.66
interaction score (4H626-bN): -0.819
interaction score (4H741-bN): -0.405
interaction score (4H754-bN): -1.54
interaction score (4H906-bN): -1.79

B2: P1-AA-1HAA-A (peptide)
chain: DEIAALEAEAAALEAENAALEAEIAALEG
interaction score (P2-AA-1HAA-D; mean of both orientations): 1.87
interaction score (P2-AA-1HAA-E): 1.86
interaction score (P2-AA-1HAA-I): 2.26
interaction score (P2-AA-1HAA-R): 1.48
interaction score (P2-AA-1HAA-S): 2
interaction score (P2-AA-1HAA-T): 1.64
interaction score (P2-AA-1HAA-V): 2.11
interaction score (P2-AA): 2.29

B3: P7A-bA (peptide)
chain: DEIAQLEQKNAELKQEIAELEWKNAQLKQ
interaction score (P7A-bA): -0.889
interaction score (P8A-bA): 1.79
interaction score (P9A-bA): -0.632

B4: 4H575-bA (peptide)
chain: DEIAQLKQEIAELEQKNAELKWKNAQLEQ
interaction score (4H575-bA): -0.354
interaction score (4H683-bA): -0.37
interaction score (4H754-bA): -0.786
interaction score (4H780-bA): -1.33
interaction score (4H797-bA): -0.567
interaction score (4H855-bA): 1.12
interaction score (4H918-bA): 0.24
interaction score (4H953-bA): -0.885
interaction score (4H968-bA): -0.872
interaction score (P7A-bA): -1.17

B5: P6A-bA (peptide)
chain: DKNAQLKQEIAELEQENAELEWKIAQLKQ
interaction score (P7A-bA): 0.285
interaction score (P8A-bA): 0.137
interaction score (P9A-bA): -1.98

B6: P1-AA-1HAA-H (peptide)
chain: DEIAALEAEHAALEAENAALEAEIAALEG
interaction score (P2-AA-1HAA-D): 1.5
interaction score (P2-AA-1HAA-E): 0.913
interaction score (P2-AA-1HAA-I): 1.98
interaction score (P2-AA-1HAA-R): 1.34
interaction score (P2-AA-1HAA-S): 1.91
interaction score (P2-AA-1HAA-T): 2.13
interaction score (P2-AA-1HAA-V): 1.33
